Earlier results in article PMC7723891.

Molecular target: Spike RBD (SARS-CoV-2) (UniProt P0DTC2)
Test: Biacore

CD147 (from UniProt P35613)
Kd: 185 nM
